Assay results taken from the RNAGym collection of RNA variant scans (doi:10.7554/elife.90254).

B1: LINE1-full (parent)
chain: UACGUAGGUGGUUUUCCCCUGAUAGUGCUAAGGGGGCCUGGAAGUUUGGACUGGGCAGAGCUCAACACAGCGUGGCAAAGUGGCUGUGGCUAGACUGCCUCUCUGGAUUCCUCGUCACUCAGCAGGGCAUCUCUGAGAGAAAUGCC

Variants of: B1
Experiment: self-cleavage, relative activity (ratio to wild type); higher = more cleavage; in vitro, sequencing; the parent is a self-cleaving ribozyme

Variant	self-cleavage
A64C A65U	0.06
A64C A67G	0.04
A64C A69U	0.05
A64C A138G	0.31
A64C A141G	0.48
A64C A141U	0.3
A64C C95A	0.01
A64C C101U	0.28
A64C C145U	0.4
A64C U73A	0.32
A64C U81A	0.44
A64C U81G	0.3
A64C U87C	0.22
A64C U96C	0.18
A64C U108C	0.39
A64C U112C	0.29
A64C U115A	0.38
A64C U115C	0.47
A64C U132C	0.34
A64C U134C	0.61
A64C U143C	0.35
A64G A67G	0.09
A64G A67U	0.11
A64G A69C	0

Variant	self-cleavage
A64G A69G	0.07
A64G A69U	0.08
A64G A78U	0.23
A64G A79G	0.24
A64G A92G	0.14
A64G A107G	0.33
A64G A117G	0.21
A64G A121G	0.28
A64G A124G	0.28
A64G A136G	0.22
A64G A136U	0.28
A64G A138U	0.27
A64G A140G	0.26
A64G A141C	0.11
A64G A141U	0.17
A64G C66U	0.08
A64G C76U	0.13
A64G C98U	0.11
A64G C99U	0.18
A64G C113A	0.17
A64G C113U	0.13
A64G C116A	0.1
A64G C118U	0.29
A64G C123U	0.26

Variant	self-cleavage
A64G C146U	0.24
A64G G86A	0.08
A64G G97A	0.07
A64G G97C	0.11
A64G G105A	0.03
A64G G106U	0.15
A64G G125U	0.33
A64G G127A	0.18
A64G G127U	0.21
A64G G144A	0.21
A64G U73A	0.19
A64G U73C	0.17
A64G U81C	0.3
A64G U85A	0.07
A64G U85C	0.1
A64G U87C	0.06
A64G U96C	0.15
A64G U100A	0.23
A64G U100C	0.29
A64G U102A	0.15
A64G U104C	0.59
A64G U108C	0.31
A64G U109A	0.14
A64G U109C	0.2

Variant	self-cleavage
A64G U112A	0.16
A64G U115A	0.08
A64G U115G	0.35
A64G U119A	0.32
A64G U134A	0.24
A64G U143C	0.26
A64U A65G	0.07
A64U A67G	0.15
A64U A69G	0.17
A64U A69U	0.07
A64U A77G	0.75
A64U A77U	0.48
A64U A78G	0.27
A64U A79G	0.4
A64U A94C	0.05
A64U A94G	0.09
A64U A117U	0.49
A64U A121G	0.49
A64U A121U	0.53
A64U A136G	0.71
A64U A136U	0.45
A64U A141G	0.32
A64U A142G	0.47
A64U A142U	0.46

Variant	self-cleavage
A64U C110A	0.44
A64U C113A	0.17
A64U C113U	0.28
A64U G70A	0.07
A64U G93U	0.05
A64U G114A	0.41
A64U G137A	0.24
A64U G144A	0.42
A64U U81A	0.85
A64U U85C	0.08
A64U U87C	0.12
A64U U96C	0.04
A64U U100A	0.23
A64U U100C	0.77
A64U U104A	0.29
A64U U109A	0.49
A64U U112C	0.44
A64U U115C	0.63
A64U U119C	0.61
A64U U130C	0.55
A64U U130G	0.43
A64U U132C	0.49
A64U U132G	0.61
A64U U143C	0.42

Variant	self-cleavage
A65C	0.04
A65C A69U	0.36
A65C A129G	0.09
A65C A136G	0
A65C A140G	0.05
A65C A141G	0.02
A65C G74U	0.03
A65C G80A	0.02
A65C U81A	0.02
A65G	0.06
A65G A67C	0.14
A65G A67G	0.09
A65G A67U	0.03
A65G A78G	0.04
A65G A79U	0.04
A65G A94U	0.05
A65G A107U	0
A65G A117U	0.04
A65G A121G	0.08
A65G A129G	0.03
A65G A129U	0.02
A65G A136G	0.07
A65G A138U	0.08
A65G A141G	0.07

Variant	self-cleavage
A65G A142G	0.06
A65G C71G	0.05
A65G C90A	0.01
A65G C90G	0.09
A65G C95U	0.05
A65G C101U	0.04
A65G C103U	0.06
A65G C113U	0.04
A65G C123G	0.03
A65G C123U	0.04
A65G C128U	0.05
A65G C145G	0.02
A65G G75A	0.03
A65G G86A	0.02
A65G G88A	0.02
A65G G93A	0.02
A65G G105A	0.01
A65G G122U	0.07
A65G G127A	0.05
A65G G135U	0.14
A65G G139A	0.06
A65G G144A	0.1
A65G U73A	0.04
A65G U73C	0.06

Variant	self-cleavage
A65G U81C	0.09
A65G U85G	0.07
A65G U91A	0.02
A65G U96A	0.07
A65G U100G	0
A65G U102A	0.01
A65G U102C	0.08
A65G U102G	0
A65G U104C	0.01
A65G U109C	0.06
A65G U109G	0.23
A65G U112A	0.04
A65G U119A	0.05
A65G U130C	0.1
A65G U132A	0.04
A65G U134C	0.06
A65G U134G	0.03
A65G U143A	0.06
A65G U143C	0.08
A65U	0.17
A65U A69U	0.03
A65U A77G	0.3
A65U A78G	0.16
A65U A78U	0.2

Variant	self-cleavage
A65U A94G	0.1
A65U A121G	0.21
A65U A136G	0.2
A65U A138U	0.16
A65U C71U	0.05
A65U C99U	0.1
A65U C111U	0.24
A65U C133U	0.16
A65U G127U	0.28
A65U U73C	0.16
A65U U85C	0.06
A65U U85G	0.1
A65U U87A	0.25
A65U U87C	0.04
A65U U96A	0
A65U U102A	0.17
A65U U102C	0.3
A65U U104A	0.14
A65U U109C	0.18
A65U U112C	0.26
A65U U119C	0.19
A65U U119G	0.45
A65U U132C	0.2
A65U U134A	0.13

Variant	self-cleavage
A65U U143A	0.06
A65U U143C	0.24
C66A	0.05
C66A A107G	0.03
C66A A107U	0.05
C66A A124U	0.04
C66A U115C	0.05
C66G	0.04
C66G U81A	0.02
C66U	0.05
C66U A77G	0.07
C66U A78G	0.04
C66U A92G	0.02
C66U A107G	0.03
C66U A117G	0.05
C66U A129G	0.01
C66U A142C	0.04
C66U U73A	0.03
C66U U85G	0.03
C66U U91A	0.05
C66U U100A	0.02
C66U U104C	0.05
C66U U115C	0.01
C66U U119C	0.04

Variant	self-cleavage
A67C A69G	0
A67C A77G	0.22
A67C A92G	0.05
A67C A94G	0
A67C A117G	0
A67C A124G	0.06
A67C A129G	0
A67C A140G	0.06
A67C C118G	0.05
A67C U104G	0.14
A67C U109C	0.06
A67C U130C	0.04
A67C U134A	0.02
A67C U134C	0.09
A67G A69C	0.37
A67G A69U	0.06
A67G A77G	0.91
A67G A78U	0.65
A67G A79G	0.5
A67G A121C	0.62
A67G A124G	0.26
A67G A138G	0.67
A67G A138U	0.56
A67G A140G	0.42

Variant	self-cleavage
A67G C68U	0.04
A67G C76U	0.62
A67G C95A	0.07
A67G C98U	0.06
A67G C99A	0.17
A67G C101U	0.75
A67G C103U	0.25
A67G C110U	0.46
A67G C118A	0.58
A67G C131A	0.72
A67G C131G	0
A67G G72A	0.21
A67G G74U	0.54
A67G G82A	0.23
A67G G83C	0.13
A67G G86A	0.05
A67G G106U	0.33
A67G G135A	0.68
A67G G144A	0.69
A67G U73A	0.24
A67G U73C	0.66
A67G U81A	0.63
A67G U85A	0.08
A67G U85C	0.1

Variant	self-cleavage
A67G U85G	0.12
A67G U100A	0.06
A67G U104A	0.36
A67G U108A	0.5
A67G U108C	0.6
A67G U109A	0.43
A67G U132A	0.64
A67G U134A	0.39
A67G U143A	0.42
A67G U143C	0.57
A67U A69G	0.03
A67U A78G	0.08
A67U A92G	0.04
A67U A92U	0.05
A67U A94G	0.02
A67U A107U	0.04
A67U A117G	0.19
A67U A121U	0.12
A67U A129G	0.08
A67U A136C	0.03
A67U A138G	0.13
A67U A138U	0.15
A67U C90G	0.04
A67U C99A	0

Variant	self-cleavage
A67U C101A	0.09
A67U C110U	0.14
A67U C131U	0.08
A67U G72A	0.13
A67U G83A	0.03
A67U G88A	0.03
A67U G89A	0.03
A67U G106A	0.15
A67U U73A	0.05
A67U U81C	0.13
A67U U85A	0.05
A67U U87A	0.57
A67U U91A	0.08
A67U U91C	0.05
A67U U96C	0.07
A67U U100C	0.27
A67U U108C	0.29
A67U U112C	0.09
A67U U130C	0.15
A67U U132A	0.11
A67U U132C	0.16
A67U U134C	0.16
